Results published in patent US20250026851A1 (AKAMIS BIO, published 2025).

Key:
[1] = target: T1, human EpCAM/TROP-1 protein (Sino Biological Inc, #10694-H02H-50) (human, UniProt P16422 24-265); test: ELISA on plate-coated human EpCAM/TROP-1 (50 ng/well), anti-His detection, A450
T1 construct: also called recombinant EpCAM protein; recombinant EpCAM
T1 sequence (looked up): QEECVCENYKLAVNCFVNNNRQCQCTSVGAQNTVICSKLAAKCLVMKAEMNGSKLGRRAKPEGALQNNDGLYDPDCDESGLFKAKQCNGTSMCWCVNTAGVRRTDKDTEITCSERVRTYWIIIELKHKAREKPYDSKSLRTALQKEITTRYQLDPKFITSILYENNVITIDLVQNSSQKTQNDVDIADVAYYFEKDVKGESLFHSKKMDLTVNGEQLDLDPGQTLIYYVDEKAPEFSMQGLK

[2] = target: T2, human FAP/seprase protein (Sino Biological Inc, 10464-H07H-10) (human, UniProt Q12884 26-760); test: ELISA on plate-coated human FAP/seprase (100 ng/well), anti-His detection, A450
T2 construct: also called recombinant FAP protein; FAP protein

[3] = target: T3, Human EpCAM on cells (human, UniProt P16422 24-314); test: cell-based or functional assay
T3 sequence: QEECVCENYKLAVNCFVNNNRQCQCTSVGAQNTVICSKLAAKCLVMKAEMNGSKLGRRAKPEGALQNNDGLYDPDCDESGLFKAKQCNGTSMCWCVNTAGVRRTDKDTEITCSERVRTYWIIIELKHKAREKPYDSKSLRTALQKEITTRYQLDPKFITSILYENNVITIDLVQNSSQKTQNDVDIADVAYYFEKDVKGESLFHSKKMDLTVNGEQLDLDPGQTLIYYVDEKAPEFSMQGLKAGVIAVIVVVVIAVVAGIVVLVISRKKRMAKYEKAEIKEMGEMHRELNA

[4] = target: Human FAP (fibroblast activation protein) on cells (human, UniProt Q12884 1-760); test: cell-based or functional assay

B1: Control (Anti-FHA) bispecific T-cell activator (anti-FHA scFv x anti-CD3 scFv, with N-terminal signal sequence and C-terminal deca-His affinity tag) (bispecific antibody)
chain: ELDIVMTQAPASLAVSLGQRATISCRASKSVSSSGYNYLHWYQQKPGQPPKLLIYLASNLESGVPARFSGSGSGTDFTLNIHPVEEEDAATYYCQHSREFPLTFGAGTKLEIKSSGGGGSGGGGGGSSRSSLEVQLQQSGPELVKPGASVKISCKTSGYTFTGYTMHWVRQSHGKSLEWIGGINPKNGGIIYNQKFQGKATLTVDKSSSTASMELRSLTSDDSAVYYCARRVYDDYPYYYAMDYWGQGTSVTVSSAKTTPPSVTSGGGGSDVQLVQSGAEVKKPGASVKVSCKASGYTFTRYTMHWVRQAPGQGLEWIGYINPSRGYTNYADSVKGRFTITTDKSTSTAYMELSSLRSEDTATYYCARYYDDHYCLDYWGQGTTVTVSSGEGTSTGSGGSGGSGGADDIVLTQSPATLSLSPGERATLSCRASQSVSYMNWYQQKPGKAPKRWIYDTSKVASGVPARFSGSGSGTDYSLTINSLEAEDAATYYCQQWSSNPLTFGGGTKVEIKHHHHHHHHHH
binding result [1]: no binding (tested: supernatant protein diluted 10-fold) | binding result [2]: no binding (tested: supernatant protein diluted 10-fold)

B2: EpCAM bispecific T-cell activator (anti-EpCAM scFv x anti-CD3 scFv, with N-terminal signal sequence and C-terminal deca-His affinity tag) (bispecific antibody)
chain: ELVMTQSPSSLTVTAGEKVTMSCKSSQSLLNSGNQKNYLTWYQQKPGQPPKLLIYWASTRESGVPDRFTGSGSGTDFTLTISSVQAEDLAVYYCQNDYSYPLTFGAGTKLEIKGGGGSGGGGSGGGGSEVQLLEQSGAELVRPGTSVKISCKASGYAFTNYWLGWVKQRPGHGLEWIGDIFPGSGNIHYNEKFKGKATLTADKSSSTAYMQLSSLTFEDSAVYFCARLRNWDEPMDYWGQGTTVTVSSGGGGSDVQLVQSGAEVKKPGASVKVSCKASGYTFTRYTMHWVRQAPGQGLEWIGYINPSRGYTNYADSVKGRFTITTDKSTSTAYMELSSLRSEDTATYYCARYYDDHYCLDYWGQGTTVTVSSGEGTSTGSGGSGGSGGADDIVLTQSPATLSLSPGERATLSCRASQSVSYMNWYQQKPGKAPKRWIYDTSKVASGVPARFSGSGSGTDYSLTINSLEAEDAATYYCQQWSSNPLTFGGGTKVEIKHHHHHHHHHH
EC50 of T cell-mediated lysis of DLD cells (LDH assay, 24 h, 8,000 DLD with 40,000 T-cells) [3]: 7.4 ng/mL

B3: FAP bispecific T-cell activator (anti-FAP scFv x anti-CD3 scFv, with N-terminal signal sequence and C-terminal deca-His affinity tag) (bispecific antibody)
chain: DIVMTQSPDSLAVSLGERATINCKSSQSLLYSRNQKNYLAWYQQKPGQPPKLLIFWASTRESGVPDRFSGSGFGTDFTLTISSLQAEDVAVYYCQQYFSYPLTFGQGTKVEIKGGGGSGGGGSGGGGSQVQLVQSGAEVKKPGASVKVSCKTSRYTFTEYTIHWVRQAPGQRLEWIGGINPNNGIPNYNQKFKGRVTITVDTSASTAYMELSSLRSEDTAVYYCARRRIAYGYDEGHAMDYWGQGTLVTVSSGGGGSDVQLVQSGAEVKKPGASVKVSCKASGYTFTRYTMHWVRQAPGQGLEWIGYINPSRGYTNYADSVKGRFTITTDKSTSTAYMELSSLRSEDTATYYCARYYDDHYCLDYWGQGTTVTVSSGEGTSTGSGGSGGSGGADDIVLTQSPATLSLSPGERATLSCRASQSVSYMNWYQQKPGKAPKRWIYDTSKVASGVPARFSGSGSGTDYSLTINSLEAEDAATYYCQQWSSNPLTFGGGTKVEIKHHHHHHHHHH
EC50 of T cell-mediated lysis of NHDF cells (LDH assay, 24 h, 8,000 NHDF with 40,000 T-cells) [4]: 3.2 ng/mL | EC50 of fibroblast (NHDF) lysis by LDH release after 24 h co-culture with PBMC T-cells [4]: ~2.5 ng/mL
